The source of these data is patent publication EP1740204B1.

Where “and” joins values, the source holds several entries; their conditions need not be identical. Equal values may be shown once.

Test [1] concerns the target MPR 300 affinity matrix (Man6P-receptor affinity matrix). As to the kind of experiment: overnight incubation with MPR 300 affinity matrix; activity in unbound, glucose 6-phosphate and mannose 6-phosphate eluted fractions.
Test [2] shares this target. As to the kind of experiment: MPR 300 affinity column.
The target is the same in test [3]. Description: MPR 300 affinity matrix binding of enzyme batches.

“recombinant mouse LAMAN with C-terminal polyhistidine tail, secreted from mannose 6-phosphate receptor deficient mouse embryonic fibroblasts (from UniProt O09159 50-1013) (enzyme)”: the percent of LAMAN activity bound to the Man6P-receptor affinity matrix in test [1] came out at 73.6%.

As to “bovine LAMAN purified from kidney (from UniProt Q29451 51-999) (enzyme)”, in test [1], the percent of LAMAN activity bound to the Man6P-receptor affinity matrix in a Man6P-dependent manner is 6.4%.

Take “recombinant human lysosomal alpha-mannosidase (LAMAN) expressed in CHO cells (enzyme)”: the percent of LAMAN bound to the Man6P-receptor affinity matrix in a Man6P-dependent manner in test [1] was 4.2%. Further, the percent bound to the MRP 300 column in test [2] was less than 40%. In test [3], the % phosphorylation (fraction of enzyme binding the Man6P-receptor affinity matrix) is 40% and 30% and 42%; the percent of the amount of enzyme binding to the affinity matrix came out at 40%.
